The domain aggregation screens of Martell et al. (2025)

Assay: soluble fraction after stress (log2 fold change); higher = more stays soluble; pooled small domains, quantitative proteomics
Conditions: stress: pH 4
Method in brief: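 Values are log2 fold changes, and higher ones mean more of the domain stayed soluble. Each fold change reflects the soluble amount of a domain after acid stress and is taken as a measure of aggregation propensity. The stress was pH 4, applied to pooled custom libraries of small protein domains analysed by high-throughput quantitative proteomics.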

Sequence | soluble fraction (log2)
HMAFAQMAQEAAKGKDDFNDLRQEMEAVIKEQPHILLMAQFGQNPYEIAYQEAKRRKAQDQQQQQ | -0.805
HMFIEMDEPEKILHRILNEANGKLELDKIGYRAEWPIGKVLTVLMSLELKGVVQSHPGKVYSL | -0.464
HMGGEEKALLFGDVDIREAGEITQRLEQAEIPYELRGDGSSIFVPRSRVMEARMMISADGLL | -0.901
HMQAKQVAIPDVANYSVTDAIKKLQDAGFIVSDEQREEANETVSEGKVSRTSPAAGSIRKEGTEIILYKSL | 0.279
HMHDIPDITDLRPLRHTLGLTLAHAAQQLNTTTATISRLERGQHRNDHLATTYRTWLHTHPT | 0.08
HMTVVSVDDQASASSEAIRTKVAGDSAARMSVDAGGKITWGAGSASGDVTLYRSAANTLKTDDTLVAT | 0.109
HMARDPWDVLGVAKTATNDEIKRAFKRQAMMTHPDKQGGSEERFKEVNEAYSHIKDEQSRAKYQNSQ | 0.0164
HMTEEEEFEKGFEILVNLSHFNRFSVYKEDEYVIVRIADYDFNEYFKVKKSDVGRIAEFLNENIT | -1.86
HMGVSDDMARGVVRARQFLSDFAAVPLDRMTPAEAVARARQLKSELETDAKHSPWLLDVLSNA | -0.37
HMGANAVAAFTARVRTGPSTGYPVRISVPQGRQVRVISGPYGGWYRVSYQGLTGYTYGGLLRQG | -0.222
HMNKTQLQIEDEVLKPLIAEIFSKSKGRFGARKIRSKLMGLGYTASERRILRLMKELGLSSAG | ≥ 0.43
HMKVDRLVSMILILLEQQRVGAQELADRFEVSVRTIYRDMEAINQAGIPVRSTSGVGGGFEIM | -0.314
HMPAPAPDIPYHSRVSVRRADGFYEGTWTNTAPILDYTGRWMVNVSLGGKRVFVPVEEVVVH | -0.384
HMTEWDDATVKDAVEYFMSVNGRVPTVTDFKKENGLPSHPVIKQRYKINLHEWLNKNFPTYY | -1.19
HMNQTPQISYSQFIADVRSGQIKDVNIDSDNRTIVGHKFSGEEFTTFSPGDNKLVDELLNYNVEIKTSP | -0.125
HMVGDMLTQKDSEGLTAYLYQQGIISQREMLLLNGILKDRVLTGMEKGQRDSVRASMVQHLLAMLNMM | -1.55
HMALDLPVKRVKGKEYYYYKVKKGESLYGISKHLGLPLDSIVKSNPSVADGVRKGDMLLFPLEEYT | 0.115
HMRRFEFSDGSSNKFWQITRDGTSLTVTFGKIGTAGQTQLKELATEAAAIAEHDKLVKEKTKKGYAEVG | -0.157
HMGGTTLIAKQATVTGDIQFSSNLDIEGRVVGAISVEPGKEAMLHVVEGGSVEGEIRVPSAVINGKVTGDI | -0.775
HMGPVALGVTDGATYFSSVTITFRRGTAVLDGEPIASGHTVYKSGAHSLTLTAGGKTRTIAFTMDT | 0.139
HMQKYSTIIGVIELRQSGIGYRTTKKRYNIGNSTVTLIMNRFHELGLSLEELKAMPPKKVEEAFYPPE | -0.0306
HMRDGHEQLQGVLSAIKFHQANFLIGVLDDGTTVKGNMLSPQVGLEYTFRGRRERHPRWGEQFAFMDYRV | -1.82
HMDSSALEPIVDQIIADNPKQVEQFQAGKTKVLGFFVGQVMKQTDGTANPKQVNELVAARLKSA | 0.0973
HMVVQTELVRISITSLSGEDIRRLVQIKVVGATIEPFEGGGFLITGTAEQIAKAKDFLNSMSTEF | -1.29
HMDSVEYRVITGDDVNFRKGPSTDYASLGKLNKGYKVEYISETNSWSKVKYNGQTGYVYSKYVAQT | -0.262
HMNPNEVQIPDLVNKTEEEAEQILKDLKLKLVVKSEEYDENIEKGKIISQDPTYKENYKIKEHSEISVIIS | 0.0816

Sequence | soluble fraction (log2)
HMDQQTKFKTALAALAASAETKDRKLTKADVKEFLEDMDLGEEQMKLVYAYLASKHIHVEGAE | -0.0463
HMTTTFGWENLVGEKGIAATDLHPSGWVTVKDQRVFVVSEGTFIEEGKEVEIMNVDGNRIVVREFKN | -0.46
HMHPTDMKLTARLEEGAQFVRTQQLSKAIEIFTEVIKLDQNWAEAWNKRATVFYMMGKFKQSQEDIDKVLA | -0.12
HMKRLPMRKIRDVLRLSADGLSTRKIGVSLTIGRTTVQAYLDRAAEVDLSWPLPPEMSDTDLERLIYPR | -0.119
HMGVGVKSTEVDYQRTSSGSDIPTDDAAWTKTIPAVKVNTFLWTRTKINYTDGTSAIFYSVGY | 0.419
HMKSIRIPFILTEGPNSQKITIDIDSDEEFRIGDVFDEDDKLWSINQILISGDRKAKMAIASEVTSISALR | -0.797
HMGDTIGEQKAKEIALEHAGLKSSDVTFIRAVLEYDDRNWEYDVEFYDADTYTEYDYEIDAHTGKILSFDH | -0.171
HMQESTPGEGYKWREDVLLRVMSQNGIDESLRDEFVRHAVNYDIDDNMYLKKAEIESAAEAWVLENS | -1.92
HMEGAEDMNRALALAFLRDNSRSTVAQLAEHLGSSKRSAERLVAQLKDEGVLERQGSPRAGLWIVHI | 0.221
HMKVTADVVVADRLKAWIISNNLKPGDRLPTEQKLSEELGVARHTLREGIKRLSQLGIIGSRTGSGMYVKN | 0.158
HMNEGETLYRLRAGDGRARLDKFLAAALPDISRTRFKGLIESGHVRVGGETITEPAYRVKSEAEVELTVPE | 0.0187
HMQDTRSHARKMLAAIEALLEGRSGSDIQAYTIHNRSITKMTVPELVKWRSYYQQQVRSEDAAASLA | 0.206
HMVDDNFGLGEVTDQNYLTVLGRALDLIGWTDEQADSYSLKTFGVPHWDELGRSQAEKLVAHLIGLLKEQM | -0.157
HMLQQKESAALGERLLNQALATLKVEPDAISWDRWEALAKEYGAKSQLDILADIGLGKRLSFVVAQALTKV | -0.698
HMDNVLGKSGKVIFVNEEINSYGRAFIPGHGEWNIRTKSDQNIHINDGIKVIERDGITLVVEL | -1.3
HMAATGPLTPREAEIARLAAGHLSNRQIAEQLVVSERTVENHLYRIFIKLAVTGRDDLAAALAATEQ | -1.17
HMTQGIDQISFSQFLDKVQSGEVTDVRISGSDITGTLKTGGKFETVAGNYEKIWDLLRENKVVFVVDSP | -0.309
HMDLLESLSAREREVVHLASRGLVNKLIARELGITERTVKAHLSSAFEKLHIKDRVHLALLVNGI | -0.48
HMDLDIQNYNLDEILELFKVSYDFDETELKKAHKMYLMTHPDKSNLNPNIFLFFVQAYDILRKLYEFR | -1.66
HMVPHQPRVWTNTAGKTITAAFVRFNAAGRKVSLKLEKGRQVELPLASLSGNDVDWIKEHVPEAMSNQE | -0.00313
HMSDAGMNQIGDMFRAPDLMAKLAMNPATREYVSQPDFLAMMEEVKRNPSALNNHLRDPRMMNVLSVAM | -0.48
HMNPIDAHVGARVRLRRMLIGMSQEKLGELLGVTFQQIQKYEKGANRIGASRLYEVSRVLDVPVQYFFDDM | -0.436
HMGDADDLSRELLQQGLSLKEAVADFERRYLQQAMQRHSSIASVSEALDVHFSTLWRKLVKYNLV | -0.621
HMTQFSASSERAGAGGAYRTTLRAMEQNGDLLQISILLPDAVTAKHAATVWPERAQAIYTAILSELLK | -0.167
HMEAVLTISPGMYSESVSAELVRLGIITNQKEFNSYLVNNGYAERIQTGDFKIKADMSYDEIARIITK | -0.489
HMDYPFQYFNYSHLRILGVPAQLIKAVRKAPTLDAIEQLSGLSEKTKLWLLELATEPKLEDVLFDPGR | -0.515

Sequence | soluble fraction (log2)
HMVGGIAIGQFNVPRGSVKVTAGGRLLQEGLDYTVNYQAGRVQILDESLKNSNVPIEISTESNS | -0.111
HMNTAALSLQRRNEIKKWLLEEKTLTVAALSNRFNVTYETIRRDLEILEKEGFLKKVYGGAALNERV | 0.244
HMKTEVNITPGIIDWIERYVQTDKISSSMTEDFQHWKSGTKKPTFNQVEAFSKAINVPLGYFFLKTPPAE | -0.902
HMAIGSRLKVTTDATNLNIRSTPSTEGDIVGKAAHHEIVTLVEKTDDSWWKIKTNDGEEGYAYAQYLSPV | 0.0608
HMETPSNTAGITHATSDGYIFKGESDIIGRNSFGFIVKHGSHNHIIPFDSLRGTKWEYLINKYT | -0.03
HMKKAITMGDIITVKELSEKIGIQVAEIIKKLMGLGILATINKELDYDTANVIASEFHIELERK | 0.0872
HMSIHPRDKADLGTALSKWKKGALDDKQLELEVARVFMRTYGKKLEGQALNKAVAAWVAALTQSKK | ≥ 0.43
HMGKSETALELIKRGHRLIADDAVEITRIGSTLSGTAPELIRNYLEVRGVGVIDVEKLFGVGAVQDSTQI | -0.0577
HMSSRSLTYSDFIERVDAGQVDAVTLDGERIVIRAKDGNTYVAIKPQGEDVTGSLTRDLIAKGVDVEAEPQ | 0.0187
HMEELIEMNGVVMEILPDSRYRVTLDNGHKLIAYTGGKMKKNHIRILAGDKVTLELSPYDINNGRITFRHI | -0.146
HMFDTVFIVRKTSDKPLDGLRTYLNSIGDSLVIGEDDEAFKVHVHTNHPGKVLEEAITYGALQTVKIENMR | -0.585
HMPTSLPGIDIDEKNIVSSTGALSFKKVPKKLAIIGGGYIGLEMGSVWSRLGSSVTVIEYLNFITPG | -0.172
HMGKQPLYEQLVDLLRDRIENDMETGELLPSERKLAHHFGLSRTTVRLAMDRLETLGLITRVHGKDTFVAE | -0.12
HMLMSDEENAEFTKLYRQLVFKLHPDLNPNQTKDEENLWHKVQMAYKGGDLEEMRSLAIILDAQ | -0.547
HMNKPKIIINSVDDSVFSDYVKDSLSIAEVARSIGIDNNKINTSVYREIHKRIDSLKLDTSHFTGGAWN | -0.634
HMLPLLEYLDPFTGKKTYTYLNPDTQHPIFTYYSYQDDKTGRTAYSYIDPLTGKAVNSDEPPMDILYD | -1.34
HMNPSAFSEYSFELLQSALLKKKIDENLSNQTIARDAGVSEAFVQKVLTNNVKRPSVKNRVRMISYLGLD | 0.00228
HMIVIMKAKAEEEDVNRVIDTIQSLGLRTQLNLGAERMVVAVIGDISKIGEDNFFRIRAMKGVENTVFVSK | -0.811
HMAESNQIQLSDVREALNMIGPASWLDLVHYLDTGKGRGGQRLRRMLKSLSRSGEIELVARGTYQITDN | -0.742
HMKHSEAIELGKRMLSQALQDVSLVLKKIPEERLQAVAAELNLKTPDELFEKIGLGERLAALVARRLLP | 0.0472
HMRDKSITFSEFVKLLDEGQIQKVTLTGNEILGTQKSGDKFRTYAPPQYEGLGNKLVERSVEVTAKE | 0.188
HMINLDGIGEKISRLRKEQGVTIRELSEYTGYSVGFLSNLETGKNSPTVESLQRVAEALRTDIIEILTK | -0.754
HMSQDTLIENGKVFLIHKVVAGQTLYGLSKAYNITIEDIIKYNPQAENGIKIGEDIKIFLKEE | -1.1
HMLANLNKELQNDAALLKQKAQGNSNLLAKIQDVEQQMKQVNTSSASDEAKAKELQTLQRKLTAYKKALA | -0.0638
